Measurements from article PMC10663500, “High-throughput analysis system of interaction kinetics for data-driven antibody design” (Scientific Reports, 2023).

Columns and labels:
[1] = molecular target: T1, human programmed cell death protein 1 (hPD-1) C93S (aa 24-167) (Homo sapiens, UniProt Q15116, C93S); assay: SPR; Carterra LSA; Fab from the ammonium sulfate precipitate of the culture supernatant immobilised on a NiHC200M chip; hPD-1 (1-1024 nM) or mPD-1-Fc (4-1024 nM) as analyte, fourfold dilution series, no regeneration; HBS-EP pH 7.4, 25 °C; medians over the spots of a construct, KD = koff/kon; conditions: one partner purified
T1 construct: made as a fusion with a TEV site and human Fc; the Fc was cut off with TEV protease; source: Expi293F, purified (Protein A, TEV cleavage of Fc, SEC; monomer fractions); not shown: Fc (human), C-terminal, cleaved
T1 sequence (Q15116 24-167 C93S): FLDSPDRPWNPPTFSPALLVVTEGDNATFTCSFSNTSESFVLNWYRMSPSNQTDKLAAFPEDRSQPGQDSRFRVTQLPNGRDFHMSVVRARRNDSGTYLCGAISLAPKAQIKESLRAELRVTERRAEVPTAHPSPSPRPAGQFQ
In short: (§1)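 Human PD-1 (1–1024 nM) or mouse PD-1-Fc (4–1024 nM), in fourfold series, was flowed without regeneration over Fabs captured in duplicate on a NiHC200M chip (Carterra LSA, 25 °C), using 10 min association and 5 min dissociation. The Fabs had been recovered from Brevibacillus culture supernatants by ammonium sulfate precipitation and redissolved in HBS-EP. For binding constants, KD was defined as koff/kon from per-construct medians, with rates fitted by the kdka model under slow- or fast-dissociation settings (best fit) and unconfirmed binders set to kon 10^3 […] and koff 10^−2 s^−1.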

[2] = molecular target: T2, mouse programmed cell death protein 1 Fc fusion protein (mPD-1-Fc), mPD-1 C60S (aa 25-167) (Mus musculus, UniProt Q02242, stabilised); assay: as above; conditions: one partner purified
T2 construct: not cleaved; source: Expi293F, purified (Protein A, SEC; dimeric fraction); not shown: Fc (human), C-terminal, kept
In short: as §1

Row | Binder | Kd [1] | koff [1] | kon [1] | Kd [2] | koff [2] | kon [2]
1 | toripalimab Fab L.V30A (Fab, V domains shown, as the heavy chain of Sm3; light chain of Sm3 with this change; numbers count from the chain's first residue; source: Brevibacillus, culture supernatant (ammonium sulfate precipitate); not shown: 6xHis, C-terminal, kept; 6xHN, C-terminal, kept) VH: QGQLVQSGAEVKKPGASVKVSCKASGYTFTDYEMHWVRQAPIHGLEWIGVIESETGGTAYNQKFKGRVTITADKSTSTAYMELSSLRSEDTAVYYCAREGITTVATTYYWYFDVWGQGTTVTVSS VL: DVVMTQSPLSLPVTLGQPASISCRSSQSIAHSNGNTYLEWYLQKPGQSPQLLIYKVSNRFSGVPDRFSGSGSGTDFTLKISRVEAEDVGVYYCFQGSHVPLTFGQGTKLEIK | 2.21 nM | 6.23e-05 s⁻¹ | 28200 M⁻¹ s⁻¹ | 255 nM | 0.00954 s⁻¹ | 37400 M⁻¹ s⁻¹
2 | toripalimab Fab L.L38A (Fab, V domains shown, as the heavy chain of Sm3; light chain of Sm3 with this change; numbers count from the chain's first residue; source: Brevibacillus, culture supernatant (ammonium sulfate precipitate); not shown: 6xHis, C-terminal, kept; 6xHN, C-terminal, kept) VH: QGQLVQSGAEVKKPGASVKVSCKASGYTFTDYEMHWVRQAPIHGLEWIGVIESETGGTAYNQKFKGRVTITADKSTSTAYMELSSLRSEDTAVYYCAREGITTVATTYYWYFDVWGQGTTVTVSS VL: DVVMTQSPLSLPVTLGQPASISCRSSQSIVHSNGNTYAEWYLQKPGQSPQLLIYKVSNRFSGVPDRFSGSGSGTDFTLKISRVEAEDVGVYYCFQGSHVPLTFGQGTKLEIK | < 1.11 nM | < 1e-05 s⁻¹ | 8980 M⁻¹ s⁻¹ | 121 nM | 0.00533 s⁻¹ | 44000 M⁻¹ s⁻¹
3 | toripalimab Fab L.N35Y (Fab, V domains shown, as the heavy chain of Sm3; light chain of Sm3 with this change; numbers count from the chain's first residue; source: Brevibacillus, culture supernatant (ammonium sulfate precipitate); not shown: 6xHis, C-terminal, kept; 6xHN, C-terminal, kept) VH: QGQLVQSGAEVKKPGASVKVSCKASGYTFTDYEMHWVRQAPIHGLEWIGVIESETGGTAYNQKFKGRVTITADKSTSTAYMELSSLRSEDTAVYYCAREGITTVATTYYWYFDVWGQGTTVTVSS VL: DVVMTQSPLSLPVTLGQPASISCRSSQSIVHSNGYTYLEWYLQKPGQSPQLLIYKVSNRFSGVPDRFSGSGSGTDFTLKISRVEAEDVGVYYCFQGSHVPLTFGQGTKLEIK | < 0.431 nM | < 1e-05 s⁻¹ | 23200 M⁻¹ s⁻¹ | 194 nM | 0.00881 s⁻¹ | 45500 M⁻¹ s⁻¹
4 | toripalimab Fab L.V30Y (Fab, V domains shown, as the heavy chain of Sm3; light chain of Sm3 with this change; numbers count from the chain's first residue; source: Brevibacillus, culture supernatant (ammonium sulfate precipitate); not shown: 6xHis, C-terminal, kept; 6xHN, C-terminal, kept) VH: QGQLVQSGAEVKKPGASVKVSCKASGYTFTDYEMHWVRQAPIHGLEWIGVIESETGGTAYNQKFKGRVTITADKSTSTAYMELSSLRSEDTAVYYCAREGITTVATTYYWYFDVWGQGTTVTVSS VL: DVVMTQSPLSLPVTLGQPASISCRSSQSIYHSNGNTYLEWYLQKPGQSPQLLIYKVSNRFSGVPDRFSGSGSGTDFTLKISRVEAEDVGVYYCFQGSHVPLTFGQGTKLEIK | 0.91 nM | 1.6e-05 s⁻¹ | 17600 M⁻¹ s⁻¹ | 173 nM | 0.00719 s⁻¹ | 41500 M⁻¹ s⁻¹
5 | toripalimab Fab L.N33A (Fab, V domains shown, as the heavy chain of Sm3; light chain of Sm3 with this change; numbers count from the chain's first residue; source: Brevibacillus, culture supernatant (ammonium sulfate precipitate); not shown: 6xHis, C-terminal, kept; 6xHN, C-terminal, kept) VH: QGQLVQSGAEVKKPGASVKVSCKASGYTFTDYEMHWVRQAPIHGLEWIGVIESETGGTAYNQKFKGRVTITADKSTSTAYMELSSLRSEDTAVYYCAREGITTVATTYYWYFDVWGQGTTVTVSS VL: DVVMTQSPLSLPVTLGQPASISCRSSQSIVHSAGNTYLEWYLQKPGQSPQLLIYKVSNRFSGVPDRFSGSGSGTDFTLKISRVEAEDVGVYYCFQGSHVPLTFGQGTKLEIK | < 0.341 nM | < 1e-05 s⁻¹ | 29300 M⁻¹ s⁻¹ | 278 nM | 0.0135 s⁻¹ | 48400 M⁻¹ s⁻¹
6 | toripalimab Fab L.G34Y (Fab, V domains shown, as the heavy chain of Sm3; light chain of Sm3 with this change; numbers count from the chain's first residue; source: Brevibacillus, culture supernatant (ammonium sulfate precipitate); not shown: 6xHis, C-terminal, kept; 6xHN, C-terminal, kept) VH: QGQLVQSGAEVKKPGASVKVSCKASGYTFTDYEMHWVRQAPIHGLEWIGVIESETGGTAYNQKFKGRVTITADKSTSTAYMELSSLRSEDTAVYYCAREGITTVATTYYWYFDVWGQGTTVTVSS VL: DVVMTQSPLSLPVTLGQPASISCRSSQSIVHSNYNTYLEWYLQKPGQSPQLLIYKVSNRFSGVPDRFSGSGSGTDFTLKISRVEAEDVGVYYCFQGSHVPLTFGQGTKLEIK | < 0.445 nM | < 1e-05 s⁻¹ | 22500 M⁻¹ s⁻¹ | 154 nM | 0.00613 s⁻¹ | 39900 M⁻¹ s⁻¹
7 | toripalimab Fab L.N35A (Fab, V domains shown, as the heavy chain of Sm3; light chain of Sm3 with this change; numbers count from the chain's first residue; source: Brevibacillus, culture supernatant (ammonium sulfate precipitate); not shown: 6xHis, C-terminal, kept; 6xHN, C-terminal, kept) VH: QGQLVQSGAEVKKPGASVKVSCKASGYTFTDYEMHWVRQAPIHGLEWIGVIESETGGTAYNQKFKGRVTITADKSTSTAYMELSSLRSEDTAVYYCAREGITTVATTYYWYFDVWGQGTTVTVSS VL: DVVMTQSPLSLPVTLGQPASISCRSSQSIVHSNGATYLEWYLQKPGQSPQLLIYKVSNRFSGVPDRFSGSGSGTDFTLKISRVEAEDVGVYYCFQGSHVPLTFGQGTKLEIK | < 1.31 nM | < 1e-05 s⁻¹ | 7640 M⁻¹ s⁻¹ | 189 nM | 0.00781 s⁻¹ | 41200 M⁻¹ s⁻¹
